Laboratory results reported in publication PMC10210826.

Molecular target: N-terminal biotinylated tetradecapeptide of the C-terminal portion of the SARS-CoV-2 E protein (SARS-CoV-2)
Assay: SPR

Work on “PDZ2 domain of human ZO1 (ZO1-PDZ2 domain) (domain or fragment)” yielded a Kd of 2.1 µM.
